# According to patent US20260015406A1 (University of Pennsylvania, published 2026):
# T1: human full length CDH17, also called cadherin 17 or liver-intestine cadherin (human, UniProt Q12864 23-832)
# T1 sequence (looked up): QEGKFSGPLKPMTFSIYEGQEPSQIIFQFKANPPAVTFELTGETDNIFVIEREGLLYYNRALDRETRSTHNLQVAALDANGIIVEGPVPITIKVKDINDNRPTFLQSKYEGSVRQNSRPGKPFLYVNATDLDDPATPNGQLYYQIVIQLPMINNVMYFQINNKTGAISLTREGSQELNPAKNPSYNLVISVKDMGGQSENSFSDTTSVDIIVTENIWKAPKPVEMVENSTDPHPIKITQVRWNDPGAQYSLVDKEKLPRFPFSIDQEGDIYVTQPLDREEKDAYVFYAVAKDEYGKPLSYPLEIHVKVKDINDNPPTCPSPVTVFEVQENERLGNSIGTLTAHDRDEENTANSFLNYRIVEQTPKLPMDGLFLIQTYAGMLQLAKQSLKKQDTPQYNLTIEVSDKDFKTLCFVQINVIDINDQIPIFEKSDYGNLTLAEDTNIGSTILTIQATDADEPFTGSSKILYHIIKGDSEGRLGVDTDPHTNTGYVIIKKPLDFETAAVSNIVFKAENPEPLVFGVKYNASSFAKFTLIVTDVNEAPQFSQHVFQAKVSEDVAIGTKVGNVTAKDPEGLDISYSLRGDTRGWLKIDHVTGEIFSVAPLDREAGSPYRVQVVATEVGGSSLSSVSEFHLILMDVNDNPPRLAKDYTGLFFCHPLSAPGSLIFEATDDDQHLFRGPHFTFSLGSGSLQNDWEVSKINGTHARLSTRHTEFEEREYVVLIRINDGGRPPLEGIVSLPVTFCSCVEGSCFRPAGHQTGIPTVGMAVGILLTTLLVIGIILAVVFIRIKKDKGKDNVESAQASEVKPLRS
# T2: mouse CDH17 (mouse, UniProt Q9R100 26-827)
# T2 construct: whole, on cells
# T2 sequence (looked up): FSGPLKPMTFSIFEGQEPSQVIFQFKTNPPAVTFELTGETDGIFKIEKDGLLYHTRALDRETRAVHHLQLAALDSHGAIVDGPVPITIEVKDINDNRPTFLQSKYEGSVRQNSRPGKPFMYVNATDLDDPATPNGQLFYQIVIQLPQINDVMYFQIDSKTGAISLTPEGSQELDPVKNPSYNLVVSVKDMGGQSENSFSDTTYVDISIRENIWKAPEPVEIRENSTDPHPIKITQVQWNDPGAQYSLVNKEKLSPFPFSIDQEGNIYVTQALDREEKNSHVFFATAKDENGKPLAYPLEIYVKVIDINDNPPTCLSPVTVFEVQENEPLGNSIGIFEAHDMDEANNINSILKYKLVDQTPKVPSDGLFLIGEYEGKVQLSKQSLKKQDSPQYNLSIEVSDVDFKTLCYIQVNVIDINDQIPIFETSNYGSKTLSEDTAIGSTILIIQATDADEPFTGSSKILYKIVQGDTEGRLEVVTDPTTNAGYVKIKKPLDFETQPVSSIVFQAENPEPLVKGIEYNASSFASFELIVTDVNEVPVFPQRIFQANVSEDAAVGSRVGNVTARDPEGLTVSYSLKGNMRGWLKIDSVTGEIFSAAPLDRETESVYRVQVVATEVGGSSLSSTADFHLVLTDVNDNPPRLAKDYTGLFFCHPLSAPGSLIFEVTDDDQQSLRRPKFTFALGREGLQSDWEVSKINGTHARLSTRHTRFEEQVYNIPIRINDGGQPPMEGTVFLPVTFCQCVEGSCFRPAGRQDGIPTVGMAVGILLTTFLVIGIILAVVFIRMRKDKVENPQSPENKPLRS
# Key:
# [1] = molecular target: switchable CAR (sCAR) with anti-PNE single chain variable fragment; test: flow cytometry, PNE-FITC titrated on sCAR T cells
# [2] = molecular target: T3, human full length aminopeptidase N (APN, aka CD13) (human, UniProt P15144 2-967); test: flow cytometry on patient-derived AML cells (AML2844)
# T3 construct: whole, on cells
# [3] = molecular target: T3, human full length aminopeptidase N …; test: flow cytometry on THP-1 cells (endogenous CD13)
# [4] = molecular target: T1, human full length CDH17, also called …; test: cell-based or functional assay
# [5] = molecular target: T2, mouse CDH17; test: flow cytometry, VHH1-expressing phage on HEK293T cells transiently transfected with CDH17 cDNA
# Procedure: (§1) Next, to identify the protein antigen of the isolated VHH1 nanobody, ˜3000 human cell membrane protein cDNAs were prepared and transfected into HEK293T cells individually, followed by flow cytometry analysis with the VHH1-expressing phage and FITC-labeled secondary antibody against phage M13 protein (FIG. 12A). […] Human or mouse CDH17 cDNA was transiently transfected into HEK293T cells, followed by flow cytometry analysis with the VHH1-expressing phage and FITC-labeled secondary antibody against phage M13 protein.
# [6] = molecular target: T1, human full length CDH17, also called …; test: flow cytometry, VHH1-expressing phage on HEK293T cells transfected with membrane protein cDNAs
# Procedure: as §1
# T3 sequence (P15144 2-967): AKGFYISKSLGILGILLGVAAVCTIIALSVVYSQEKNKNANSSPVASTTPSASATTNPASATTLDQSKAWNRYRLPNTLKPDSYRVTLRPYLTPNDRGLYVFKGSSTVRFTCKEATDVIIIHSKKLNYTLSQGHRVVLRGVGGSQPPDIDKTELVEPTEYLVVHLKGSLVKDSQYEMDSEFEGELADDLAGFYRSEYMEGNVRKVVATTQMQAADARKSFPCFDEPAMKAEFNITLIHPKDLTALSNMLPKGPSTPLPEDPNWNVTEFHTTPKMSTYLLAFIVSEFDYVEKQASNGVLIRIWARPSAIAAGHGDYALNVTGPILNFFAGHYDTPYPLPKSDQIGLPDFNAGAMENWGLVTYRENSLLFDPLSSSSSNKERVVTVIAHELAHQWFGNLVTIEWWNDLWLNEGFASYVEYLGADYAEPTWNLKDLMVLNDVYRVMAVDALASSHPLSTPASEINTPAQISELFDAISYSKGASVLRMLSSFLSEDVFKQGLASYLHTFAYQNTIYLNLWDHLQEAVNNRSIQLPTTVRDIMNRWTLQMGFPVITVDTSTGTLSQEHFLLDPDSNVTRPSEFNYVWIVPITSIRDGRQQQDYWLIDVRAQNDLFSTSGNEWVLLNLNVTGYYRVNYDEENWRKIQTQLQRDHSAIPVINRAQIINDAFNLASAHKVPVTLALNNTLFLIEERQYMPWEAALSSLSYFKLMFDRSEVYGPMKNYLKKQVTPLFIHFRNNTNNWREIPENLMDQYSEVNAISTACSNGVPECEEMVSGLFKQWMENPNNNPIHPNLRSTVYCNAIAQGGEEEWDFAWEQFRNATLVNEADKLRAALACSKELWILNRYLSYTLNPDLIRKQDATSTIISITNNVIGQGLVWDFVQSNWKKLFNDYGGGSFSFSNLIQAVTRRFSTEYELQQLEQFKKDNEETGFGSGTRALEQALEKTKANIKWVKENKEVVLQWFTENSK
molecule,measurement,setting,value
FITC-labeled PNE-peptide,EC50,[1],1 nM
"Nb163 (VHH, also called VHH163; VH163) VHH: QVQLQESGGGLVQPGGSLRLSCVPSGFTFDGYLIGWFRQAPGSERKAVSCISVNGDRTNYADSVKGRFTISRDNAKNTVYLQMNSLRPNDTAIYYCATRRGNRLYNNNCPYFEYGTWGQGTQVTVSS",binding result,[2],binds
"Nb157-C-PNE (VHH, also called VHH157-C-PNE; Nb157 with C-terminal PNE; not shown: PNE, a fourteen amino acid peptide) VHH: QVQLQESGGGLVQPGGSLSLSCTASGFTFSSYSMAWVRQAPGKGPEWVSGIYPSDGKTRYADFVKGRFSISRDNAKNMLYLQMNNLEPEDTALYYCARGITGLGPRGQGTQVTVSS",Kd,[3],~35 nM
"Nb157 (VHH, Llama nanobody from the THP-1-immunised library; also called VHH157; VH157) VHH: QVQLQESGGGLVQPGGSLSLSCTASGFTFSSYSMAWVRQAPGKGPEWVSGIYPSDGKTRYADFVKGRFSISRDNAKNMLYLQMNNLEPEDTALYYCARGITGLGPRGQGTQVTVSS",Kd,[3],~35 nM
"Nb157-N-PNE (VHH, also called VHH157-N-PNE; Nb157 with N-terminal PNE; not shown: PNE, a fourteen amino acid peptide) VHH: QVQLQESGGGLVQPGGSLSLSCTASGFTFSSYSMAWVRQAPGKGPEWVSGIYPSDGKTRYADFVKGRFSISRDNAKNMLYLQMNNLEPEDTALYYCARGITGLGPRGQGTQVTVSS",Kd,[3],~90 nM
"VLV-DM1 (VHH, not shown: small tags and cut ends, Mertansine (DM1) is conjugated to the VLV protein; the residues, number of drugs and chemical linker are not stated. In reality one polypeptide: the two VHH1 units are joined by a peptide linker whose letters are not given.) VHH 1: QVQLQESGGGLVQPGGSTRLSCVSSRTFSYYDMGWFRQAPGKEREFVALLSWNGENAEYSDSVMGRFTVSRGNTQNSVNLQMNNLKPEDTGIYYCAVTHGGARSVRSWGQGTQVTVSS VHH 2: QVQLQESGGGLVQPGGSTRLSCVSSRTFSYYDMGWFRQAPGKEREFVALLSWNGENAEYSDSVMGRFTVSRGNTQNSVNLQMNNLKPEDTGIYYCAVTHGGARSVRSWGQGTQVTVSS","IC50, in vitro killing of BON cells (MTT assay)",[4],1.2 nM
"VHH1 nanobody (VHH, From a naive llama phage library panned on BON cells) VHH: QVQLQESGGGLVQPGGSTRLSCVSSRTFSYYDMGWFRQAPGKEREFVALLSWNGENAEYSDSVMGRFTVSRGNTQNSVNLQMNNLKPEDTGIYYCAVTHGGARSVRSWGQGTQVTVSS",binding result,[5],binds
same,binding result,[6],binds
